These results are taken from publication PMC11685440.

In the assay the target is 6xHis-MBP-PmARF1^DBD (Penium margaritaceum AB-class ARF1 DNA-binding domain) (Penium margaritaceum). As to the kind of experiment: SEC-MALS; 6xHis-MBP-PmARF1^DBD at 1 mg/ml in 1x PBS, Superdex 200 Increase 10/300 GL, room temperature. (SEC sorts molecules by how far they enter the pores of the column.)

As a reminder, the stoichiometry N is a count of units in the complex or per binding partner.

In turn, “6xHis-MBP-PmARF1^DBD (Penium margaritaceum AB-class ARF1 DNA-binding domain) (domain or fragment)” yielded a stoichiometry N of 2.
